Columns and labels:
[1] = test system: C[C@H](N)C(=O)O; test: purified protein; conditions: Na+ primary substrate (S1) binding site, W259
[2] = test system: NCC(=O)O; test: purified protein; conditions: Na+ primary substrate (S1) binding site, near F259 and I359

Row | Substance | Km [1] | Km [2]
1 | LeuT (Aquifex aeolicus VF5; F259W) | 3.7 ± 0.9 µM | –
2 | LeuT (Aquifex aeolicus VF5) | – | 1.2 ± 0.2 µM
